Target: T1, 4-1BB蛋白(义翘神州，10041-H08H) (human, UniProt Q07011 24-186)
T1 construct: bought reagent; also called 4-1BB-His蛋白; 4-1BB protein
Assay: SPR, BIAcore X100; antibody captured by anti-human IgG Fc on CM5, 4-1BB protein as analyte, 1:1 model

B1: Urelumab (antibody, human IgG4 S228P, kappa, V domains shown)
VH: QVQLQQWGAGLLKPSETLSLTCAVYGGSFSGYYWSWIRQSPEKGLEWIGEINHGGYVTYNPSLESRVTISVDTSKNQFSLKLSSVTAADTAVYYCARDYGPGNYDWYFDLWGRGTLVTVSS
VL: EIVLTQSPATLSLSPGERATLSCRASQSVSSYLAWYQQKPGQAPRLLIYDASNRATGIPARFSGSGSGTDFTLTISSLEPEDFAVYYCQQRSNWPPALTFGGGTKVEIKR
notes: Second positive control antibody, expressed in HEK293 in the same way as Utomilumab
- Kd: 4.87 nM
- koff: 0.00251 s⁻¹
- kon: 516000 M⁻¹ s⁻¹
